# Reference: patent publication US20250333503A1 (COMPUGEN, published 2025)
# T1: human PVRIG (Poliovirus Receptor Related Immunoglobulin Domain Containing Protein) (human, UniProt Q6DKI7 41-326)
# T1 construct: whole, on cells; on HEK293 over-expressing cells (some pools flag-tagged), Jurkat, CA46 or primary T cells; also called hPVRIG; C7orf15
# T1 sequence (looked up): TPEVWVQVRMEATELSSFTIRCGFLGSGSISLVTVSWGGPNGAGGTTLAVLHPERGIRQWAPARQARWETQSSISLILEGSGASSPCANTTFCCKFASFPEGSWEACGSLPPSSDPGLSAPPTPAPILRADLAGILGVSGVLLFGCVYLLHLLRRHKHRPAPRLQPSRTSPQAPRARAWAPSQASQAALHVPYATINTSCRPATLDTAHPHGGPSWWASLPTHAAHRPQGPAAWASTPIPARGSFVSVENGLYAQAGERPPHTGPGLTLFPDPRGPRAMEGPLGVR
# B1: CPA.7.021 IgG conjugated with Alexa 647 (antibody, V domains shown)
# VH: EVQLVESGGGVVKPGGSLRLSCAASGFTFGTSSMNWVRQAPGKGLEWVAVISFDGTEIHYADSVKGRFTISRDNSKSTVFLQMNSLRPDDTALYYCAKGSGNIYFYSGMDVWGQGTTVTVSS
# VL: DIQMTQSPSTLSASVGDRVTITCRAGQSISGWLAWFQQKPGKAPNLLIYETSTLESGVPSRFSGSGSGTEYTLTISSLQPDDFATYYCQQYYSYPLTFGQGTKVEIK
# B2: mouse PVRL2-his (ligand, UniProt P32507 32-351, looked up)
# chain: QDVRVRVLPEVRGRLGGTVELPCHLLPPTTERVSQVTWQRLDGTVVAAFHPSFGVDFPNSQFSKDRLSFVRARPETNADLRDATLAFRGLRVEDEGNYTCEFATFPNGTRRGVTWLRVIAQPENHAEAQEVTIGPQSVAVARCVSTGGRPPARITWISSLGGEAKDTQEPGIQAGTVTIISRYSLVPVGRADGVKVTCRVEHESFEEPILLPVTLSVRYPPEVSISGYDDNWYLGRSEAILTCDVRSNPEPTDYDWSTTSGVFPASAVAQGSQLLVHSVDRMVNTTFICTATNAVGTGRAEQVILVRESPSTAGAGATGG
# notes: also called His-tagged PVRL2; his-tagged mouse PVLR2
# What was measured:
# [1] = target: T1, human PVRIG (Poliovirus Receptor …); test: FACS on Jurkat cells after PVRIG siRNA knock down
# [2] = target: T1, human PVRIG (Poliovirus Receptor …); test: FACS on Jurkat cells transfected with scrambled siRNA
# [3] = target: T1, human PVRIG (Poliovirus Receptor …); test: flow cytometry equilibrium titration on HEK 293 cells expressing human PVRIG, 1:1 fit
# [4] = target: T2, mouse PVRIG on HEK293 over-expressing cells (mouse); test: FACS, 60 µg/ml on HEK293 OX mouse PVRIG; one of two sources
# T2 construct: whole, on cells; also called HEK293 OX mouse PVRIG; mouse PVRIG-FLAG
binder,measurement,setting,value
B1,fold change (anti PVRIG vs isotype control),[1],2.8 fold
same,fold change (anti PVRIG vs isotype control),[2],15.3 fold
same,Kd,[3],2.5 nM
B2,fold binding vs empty vector cells,[4],2 fold
